One test addresses rat PD-L1 protein (rat, UniProt D4AE25 19-239). Description: ELISA, coated rat PD-L1. As for the experimental part: (§1) ELISA testing was carried out to evaluate the binding of chimeric antibodies to human, mouse, rat, and cynomolgus PD-L1, respectively.
(§2) Briefly, microtiter plates were coated with human, mouse, rat and cynomolgus PD-L1 proteins at 0.5 μg/ml in PBS, 100 μl/well at 4° C. overnight, then blocked with 150 μl/well of 1% BSA. Three-fold dilutions of chimeric antibodies starting from 10 μg/ml were added to each well and incubated for 1 hour at 37° C. The plates were washed with PBS/Tween and then incubate with mouse-anti-human IgG Fab antibody conjugated with Horse Radish Peroxidase (HRP) for 30 mins at 37° C. After washing, the plates were developed with TMB substrate and analyzed by spectrophotometer at OD 450 nm.
For orientation: In an ELISA, binding on a coated surface is turned into a signal by an enzyme label.

The next test deals with mouse PD-L1 protein (mouse, UniProt Q9EP73 19-239). Description: ELISA, coated mouse PD-L1. As for the experimental part: as §1, §2
Sequence of mouse PD-L1 protein (Q9EP73 19-239 limits assumed): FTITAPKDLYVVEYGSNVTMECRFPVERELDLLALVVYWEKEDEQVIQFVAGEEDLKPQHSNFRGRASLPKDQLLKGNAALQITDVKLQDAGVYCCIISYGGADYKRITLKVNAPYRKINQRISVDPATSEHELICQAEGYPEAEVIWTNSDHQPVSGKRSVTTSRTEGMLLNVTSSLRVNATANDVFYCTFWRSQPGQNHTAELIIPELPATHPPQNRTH
Test [1] addresses T1, human PD-L1 over-expressed on CHOK1 cells (human, UniProt Q9NZQ7 19-290).
T1 construct: whole, on cells; also called PDL1-CHOK1 cells
Description: flow cytometry on PDL1-CHOK1 cells. As for the experimental part: After washing by PBS, Alexa Fluor® 647 AffiniPure Goat Anti-Human IgG (H+L) was added to each well and incubated at 4° C. for 30 mins. Samples were washed twice with FACS buffer. The mean florescence intensity (MFI) of Alexa Fluor® 647 was evaluated by FACSCanto.
For orientation: In flow cytometry, cells or beads pass a laser one at a time.

A further test addresses cynomolgus PD-L1 protein (cynomolgus, UniProt G7PSE7 19-238). Description: ELISA, coated cynomolgus PD-L1. As for the experimental part: as §1, §2
Test [2] concerns the target T2, human PD-L1-Fc protein (human, UniProt Q9NZQ7 19-238).
T2 construct: coating antigen of the ELISAs; also called rhPD-L1-Fc; not shown: Fc
Description: ELISA, coated human PD-L1 (PD-L1-Fc per paragraph 110). As for the experimental part:
Briefly, microtiter plates were coated with human PD-L1-Fc protein at 0.5 μg/ml in PBS, 100 μl/well at 4° C. overnight, then blocked with 150 μl/well of 1% BSA. […] The plates were washed with PBS/Tween and then incubated with Mouse-anti-human IgG Fab antibody conjugated with Horse Radish Peroxidase (HRP) for 30 mins at 37° C. After washing, the plates were developed with TMB substrate and analyzed by spectrophotometer at OD 450 nm.
as §2

The target in test [3] is T3, human PD-L1-his tag protein (human, UniProt Q9NZQ7 19-238).
T3 construct: also called human PD-L1-His protein; recombinant PD-L1 protein; not shown: his tag
T3 sequence (Q9NZQ7 19-238 limits assumed): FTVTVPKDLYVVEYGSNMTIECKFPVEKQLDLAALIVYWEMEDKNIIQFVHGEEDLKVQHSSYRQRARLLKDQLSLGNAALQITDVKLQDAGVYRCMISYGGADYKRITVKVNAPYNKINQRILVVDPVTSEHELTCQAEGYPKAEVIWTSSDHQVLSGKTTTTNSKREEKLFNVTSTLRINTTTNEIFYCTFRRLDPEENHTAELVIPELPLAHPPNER
Nature of the test: SPR (Biacore T200), mAb captured on Protein A chip, PD-L1-his injected. As for the experimental part: A serial dilution of human PD-L1-his tag protein was injected over captured antibody for 2 mins at a flow rate of 30 μl/min. The antigen was allowed to dissociate for 480-1500 s. All the experiment were carried out on a Biacore T200. Data analysis was carried out using Biacore T200 evaluation software.

Test [4] concerns the target T2, human PD-L1-Fc protein. Description: competition ELISA, coated human PD-L1-Fc, biotin-labeled human PD-1-Fc as competitor. As for the experimental part: Briefly, microtiter plates were coated with human PD-L1-Fc protein at 0.5 μg/ml in PBS, 100 μl/well at 4° C. overnight, then blocked with 150 μl/well of 1% BSA. […] The plates were washed with PBS/Tween and then incubated with Streptavidin-HRP for 10 mins at 37° C. After washing, the plates were developed with TMB substrate and analyzed by spectrophotometer at OD 450 nm.

The target in test [5] is T1, human PD-L1 over-expressed on CHOK1 …. Description: flow cytometry (MFI) on PDL1-CHOK1 cells; upper left panel (with Hu47C6A3-1 to -3). As for the experimental part:
(§3) To evaluate the antigen binding property, the humanized antibodies were analyzed for their binding to PD-L1 overexpressed on mammalian cells by FACS. Briefly, PDL1-CHOK1 cells were firstly incubated with 3-fold serious diluted humanized antibodies starting at 15 μg/ml at 4° C. for 40 mins. After washed by PBS, the Alexa Fluor® 647 AffiniPure Goat Anti-Human IgG (H+L) antibody was added to each well and incubated at 4° C. for 30 mins. The MFI of Alexa Fluor® 647 was evaluated by FACSCanto.

Test [6] concerns the target T2, human PD-L1-Fc protein. Description: ELISA, antibody titrated on coated human PD-L1-Fc, OD 450nm; lower left panel (with Hu47C6A3-3). As for the experimental part: as §2, with “To evaluate antigen binding activity, the humanized antibodies were subjected to ELISA test. Briefly,” for “Briefly,”, “with human PD-L1-Fc protein” for “with human, mouse, rat and cynomolgus PD-L1 proteins”, “with 200” for “with 150”, “of humanized” for “of chimeric”, “then incubated” for “then incubate”, “for 1 hour” for “for 30 mins”

Test [7] deals with T2, human PD-L1-Fc protein. Nature of the test: ELISA, antibody titrated on coated human PD-L1-Fc, OD 450nm; upper left panel (with Hu47C6A3-1). On the procedure:
as §2, with “To evaluate antigen binding activity, the humanized antibodies were subjected to ELISA test. Briefly,” for “Briefly,”, “with human PD-L1-Fc protein” for “with human, mouse, rat and cynomolgus PD-L1 proteins”, “with 200” for “with 150”, “of humanized” for “of chimeric”, “then incubated” for “then incubate”, “for 1 hour” for “for 30 mins”

For test [8], the target named is T2, human PD-L1-Fc protein. Description: ELISA, antibody titrated on coated human PD-L1-Fc, OD 450nm; upper right panel (with Hu47C6A3-2). As for the experimental part:
as §2, with “To evaluate antigen binding activity, the humanized antibodies were subjected to ELISA test. Briefly,” for “Briefly,”, “with human PD-L1-Fc protein” for “with human, mouse, rat and cynomolgus PD-L1 proteins”, “with 200” for “with 150”, “of humanized” for “of chimeric”, “then incubated” for “then incubate”, “for 1 hour” for “for 30 mins”

For test [9], the target named is T2, human PD-L1-Fc protein. Nature of the test: receptor blocking ELISA: coated human PD-L1-Fc, blocked ligand biotin-labeled human PD-1-Fc (Bio-PD1), OD 450nm; lower left panel (with Hu47C6A3-3). As for the experimental part:
(§4) Briefly, microtiter plates were coated with human PD-L1-Fc protein at 0.5 μg/ml in PBS, 100 μl/well at 4° C. overnight, then blocked with 150 μl/well of 1% BSA at 37° C. for 2 hours. […] The plates were washed with PBS/Tween and then incubated with Streptavidin-HRP for 10 mins at 37° C. After washing, the plates were developed with TMB substrate and analyzed by spectrophotometer at OD 450 nm.

Test [10] has as its target T2, human PD-L1-Fc protein. Description: receptor blocking ELISA: coated human PD-L1-Fc, blocked ligand biotin-labeled human PD-1-Fc (Bio-PD1), OD 450nm; upper right panel (with Hu47C6A3-2). As for the experimental part:
as §4

For test [11], the target named is T2, human PD-L1-Fc protein. Description: receptor blocking ELISA: coated human PD-L1-Fc, blocked ligand biotin-labeled human CD80-Fc (Bio-CD80), OD 450nm; lower left panel (with Hu47C6A3-3). As for the experimental part: as §4
The target of test [12] is T2, human PD-L1-Fc protein. Description: receptor blocking ELISA: coated human PD-L1-Fc, blocked ligand biotin-labeled human CD80-Fc (Bio-CD80), OD 450nm; upper left panel (with Hu47C6A3-1). On the procedure:
as §4

Test [13] addresses T2, human PD-L1-Fc protein. Description: receptor blocking ELISA: coated human PD-L1-Fc, blocked ligand biotin-labeled human CD80-Fc (Bio-CD80), OD 450nm; upper right panel (with Hu47C6A3-2). On the procedure: as §4
In test [14] the target is T3, human PD-L1-his tag protein. Nature of the test: SPR (Biacore), affinity ranking, PDL1-His. A general note: SPR reads the build-up and loss of mass on a sensor chip optically.
For test [15], the target named is T1, human PD-L1 over-expressed on CHOK1 …. Description: flow cytometry (MFI) on PDL1-CHOK1 cells; upper right panel. As for the experimental part:
as §3

The target in test [16] is T3, human PD-L1-his tag protein. Nature of the test: SPR (Biacore T200), mAb captured on Protein A chip, PD-L1-his injected. As for the experimental part:
The binding of the humanized antibodies to recombinant PD-L1 protein (human PD-L1-his tag) was tested by Biacore using a capture method. […] A serial dilution of human PD-L1-his tag protein was injected over captured antibody for 2 mins at a flow rate of 30 μl/min. The antigen was allowed to dissociate for 1500 s. All the experiment were carried out on a Biacore T200.
This is another data set of the same source.

For test [17], the target named is T2, human PD-L1-Fc protein. Description: ELISA, antibody titrated on coated human PD-L1-Fc, OD 450nm; upper left panel. As for the experimental part:
as §2, with “To evaluate antigen binding activity, the humanized antibodies were subjected to ELISA test. Briefly,” for “Briefly,”, “with human PD-L1-Fc protein” for “with human, mouse, rat and cynomolgus PD-L1 proteins”, “with 200” for “with 150”, “of humanized” for “of chimeric”, “then incubated” for “then incubate”, “for 1 hour” for “for 30 mins”

Test [18] addresses T2, human PD-L1-Fc protein. Nature of the test: receptor blocking ELISA: coated human PD-L1-Fc, blocked ligand biotin-labeled human PD-1-Fc (Bio-PD1), OD 450nm; middle left panel. As for the experimental part: as §4
The target in test [19] is T2, human PD-L1-Fc protein. Nature of the test: receptor blocking ELISA: coated human PD-L1-Fc, blocked ligand biotin-labeled human CD80-Fc (Bio-CD80), OD 450nm; middle left panel. On the procedure: as §4

T2 sequence (Q9NZQ7 19-238 limits assumed): as above
T1 sequence (Q9NZQ7 19-290): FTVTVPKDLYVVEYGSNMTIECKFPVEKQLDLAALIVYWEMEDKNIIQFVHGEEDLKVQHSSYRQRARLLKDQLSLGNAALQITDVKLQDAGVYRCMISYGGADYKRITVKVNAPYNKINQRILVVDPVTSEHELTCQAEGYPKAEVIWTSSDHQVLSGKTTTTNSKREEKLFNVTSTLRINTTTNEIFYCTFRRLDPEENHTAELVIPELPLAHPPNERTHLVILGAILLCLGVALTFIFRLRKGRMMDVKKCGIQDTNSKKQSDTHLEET
Sequence of cynomolgus PD-L1 protein (G7PSE7 entry or part of it): as the sequence (Q9NZQ7 19-238 limits assumed) above, with A33T, A34S, S62N, R68Q, Q82R, F173L, T185A, T192I, H215L counted along it
Sequence of rat PD-L1 protein (D4AE25 entry or part of it limits assumed): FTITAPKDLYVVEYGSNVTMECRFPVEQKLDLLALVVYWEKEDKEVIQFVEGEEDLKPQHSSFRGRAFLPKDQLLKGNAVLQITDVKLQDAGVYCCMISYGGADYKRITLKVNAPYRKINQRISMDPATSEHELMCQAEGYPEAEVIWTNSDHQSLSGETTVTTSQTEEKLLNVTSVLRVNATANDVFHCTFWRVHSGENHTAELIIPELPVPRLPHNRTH

B1: 47C6A3 chimeric mAb (antibody, V domains shown)
VH: DVQLQESGPGLVKPSQSLSLTCTVTGYSITSDYAWNWIRQFPGNKLEWMGYIIYSGSTSYNPSLKSRISITRDTSKNQFFLQLNSVTTEDTATYYCARSTMIATNWFAYWGQGTLVTVSA
VL: DIVMTQSHKFMSTSVVDRVSITCKASQDVSLAVAWYQQKPGQSPKLLIYWASTRHTGVPDRFTGSGSGTDFALTISSVQAEDLALYYCQQHYITPWTFGGGTKLEIK
notes: chimeric mAb of the hybridoma clone; also called 47C6A3-chimera
A word on the EC50: it is the concentration needed to bring the measured effect to its halfway point. As usually defined, the Kd is the equilibrium constant for the complex coming apart. A low value points to a tighter complex. What is called koff is the rate constant with which the complex falls apart. One may read the kon as the rate constant with which the complex forms. A low value points to slow association. The term IC50 denotes the point on the concentration scale where inhibition reaches its midpoint. High values mean weaker potency, low ones greater potency. Take B1: the binding result in the test with rat PD-L1 protein and in the test with mouse PD-L1 protein was “no binding (tested: dilutions starting from 10 µg/ml)” in each case. The EC50 turned out to be 0.148 nM in test [1]; 0.00634 µg/mL with cynomolgus PD-L1 protein; 0.0102 µg/mL with human PD-L1-Fc protein [2]; 0.113 nM in test [5]; 0.0176 µg/mL with human PD-L1-Fc protein [6]; 0.0115 µg/mL in the test with human PD-L1-Fc protein [7]. In the test with human PD-L1-Fc protein [8], this molecule registered an EC50 of 0.0124 µg/mL. The molecule also returned a Kd in test [3] of 0.366 nM. The koff in test [3] was 0.000678 s⁻¹. Further, the kon in [3] was 1.85e+06 M⁻¹ s⁻¹. Further, the IC50 with human PD-L1-Fc protein [4] was 0.0912 µg/mL; in the test with human PD-L1-Fc protein [9] it was 0.099 µg/mL; in the test with human PD-L1-Fc protein [10], 0.0857 µg/mL; in the test with human PD-L1-Fc protein [11], 0.439 µg/mL; in the test with human PD-L1-Fc protein [12], 0.436 µg/mL; with human PD-L1-Fc protein [13] it was 0.395 µg/mL.

B2: Hu67F3G7-5 (antibody, V domains shown)
VH: EVQLVQSGAEVKKPGASVKVSCKASGYIFTDFWVSWVRQAPGKGLEWIGEIYPNSGVSRYNEKFKGRVTMTVDKSISTAYMELSRLRSDDTAVYYCTKYFGYTYWFGYWGQGTLVTVSS
VL: DIQMTQSPSSLSASVGDRVTITCRASKSVSTYMHWYQQKPGKAPKLLIYSASHLESGVPSRFSGSGSGTDFTLTISSLQPEDFATYYCQQSNELPVTFGGGTKVEIK
notes: humanized
For the molecule B2, the Kd came out at 0.037 nM in test [14] and 0.0431 nM in [16]. Besides, the results for the koff in [14] and in [16] were 9.71e-05 s⁻¹ and 7.92e-05 s⁻¹, respectively. Further, the results for the kon in test [14] and in test [16] were 2.62e+06 M⁻¹ s⁻¹ and 1.84e+06 M⁻¹ s⁻¹, respectively. Moreover, the EC50 came to 0.115 nM in test [15] and 0.0133 µg/mL with human PD-L1-Fc protein [17]. For the same molecule, the IC50 was determined as 0.127 µg/mL with human PD-L1-Fc protein [18] and 0.344 µg/mL with human PD-L1-Fc protein [19].

Source of the values: patent publication US20230287125A1 (LEPU BIOPHARMA, published 2023).
